B1: Azoarcus group I ribozyme (parent)
chain: GUGCCUUGCGCCGGGAAACCACGCAAGGGAUGGUGUCAAAUUCGGCGAAACCUAAGCGCCCGCCCGGGCGUAUGGCAACGCCGAGCCAAGCUUCGGCGCCUGCGCCGAUGAAGGUGUAGAGACUAGACGGCACCCACCUAAGGCAAACGCUAUGGUGAAGGCAUAGUCCAGGGAGUGGCGAAAGUCACACAAACCGG

Variants of: B1
Experiment: reverse-splicing fitness (ratio to wild type); higher = more active; in vitro selection; Mg2+ level not given
Outline: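 An in vitro group I ribozyme library with randomized positions was T7-transcribed and gel-purified. In triplicate, 10 pmol RNA in EPPS pH 7.5 was reacted with 50 pmoles of a 30-nt RNA substrate for 1 h at 37 °C across several added MgCl2 levels (1–48 mM), then stopped with EDTA. Products were reverse transcribed from a substrate-complementary primer, PCR-amplified and sequenced (HiSeq 4000). Fitness is a variant's read proportion after selection over that before, normalised to wild type.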
C82A A111C A120U A145G C150U C169U U176G gave a reverse-splicing fitness of 0.00315. Work on C82A A111C A120U A145G C150U C169U U176A yielded a reverse-splicing fitness of 0.00523. Work on C82A A111C A120U A145U C169U yielded a reverse-splicing fitness of 0.00402. C82A A111C A120U A145U C169A gave a reverse-splicing fitness of 0.00297. C82A A111C A120U A145U C169G gave a reverse-splicing fitness of 0.00439. Variant C82A A111C A120U A145U C150U U176G has a reverse-splicing fitness of 0.00353. Variant C82A A111C A120U A145U C150U U176C has a reverse-splicing fitness of 0.00936. For C82A A111C A120U A145U C150U U176A, the reverse-splicing fitness was 0.00713. C82A A111C A120U A145U C150A C169U U176C showed a reverse-splicing fitness of 0.00301. C82A A111C A120U A145U C150A C169U U176G showed a reverse-splicing fitness of 0.00282. C82A A111C A120U A145U C150A C169U U176A gave a reverse-splicing fitness of 0.00378. C82A A111C A120U A145U C169U U176A gave a reverse-splicing fitness of 0.00262. With C82A A111C A120U A145U C169U U176C the reverse-splicing fitness was 0.00253. For C82A A111C A120U A145U C169U U176G, the reverse-splicing fitness was 0.002. In the case of C82A A111C A120U A145C C150A C169A U176C, the reverse-splicing fitness is reported as 0.00256. For C82A A111C A120U A145C C150A C169A U176A, the reverse-splicing fitness was 0.00291. In the case of C82A A111C A120U A145C C150A C169A U176G, the reverse-splicing fitness is reported as 0.00275. In the case of C82A A111C A120U A145U C150A C169G U176C, the reverse-splicing fitness is reported as 0.00377. C82A A111C A120U A145U C150A C169G U176G showed a reverse-splicing fitness of 0.00247. In the case of C82A A111C A120U A145U C150A C169G U176A, the reverse-splicing fitness is reported as 0.003. Work on C82A A111C A120U A145C C150G U176G yielded a reverse-splicing fitness of 0.00265. With C82A A111C A120U A145C C150G U176C the reverse-splicing fitness was 0.00415. In the case of C82A A111C A120U A145C C150G U176A, the reverse-splicing fitness is reported as 0.00333. In the case of C82A A111C A120U A145U C150G C169U U176A, the reverse-splicing fitness is reported as 0.0031. C82A A111C A120U A145U C150G C169U U176C showed a reverse-splicing fitness of 0.00305. Variant C82A A111C A120U A145U C150G C169U U176G has a reverse-splicing fitness of 0.0029. Work on C82A A111C A145C C150A C169G U176G yielded a reverse-splicing fitness of 0.00943. C82A A111C A145C C150A C169G U176C gave a reverse-splicing fitness of 0.0219. Work on C82A A111C A145C C150A C169G U176A yielded a reverse-splicing fitness of 0.0264. C82A A111C A120U A145U C150A C169A U176C gave a reverse-splicing fitness of 0.00334. C82A A111C A120U A145U C150A C169A U176G gave a reverse-splicing fitness of 0.00272. With C82A A111C A120U A145U C150A C169A U176A the reverse-splicing fitness was 0.00258. With C82A A111C A120U A145G C150G the reverse-splicing fitness was 0.00762. With C82A A111C A120U A145G C150A the reverse-splicing fitness was 0.00897. C82A A111C A120U A145G C150U gave a reverse-splicing fitness of 0.0191. Variant C82A A111C A120U C150G C169G U176C has a reverse-splicing fitness of 0.00343. In the case of C82A A111C A120U C150G C169G U176G, the reverse-splicing fitness is reported as 0.00279. C82A A111C A120U C150G C169G U176A showed a reverse-splicing fitness of 0.00439. Work on C82A A111C A120G C169G U176C yielded a reverse-splicing fitness of 0.0214. With C82A A111C A120G C169G U176G the reverse-splicing fitness was 0.00494. Work on C82A A111C A120G C169G U176A yielded a reverse-splicing fitness of 0.0165. C82A A111C A120U A145U C150G C169G gave a reverse-splicing fitness of 0.00401. Work on C82A A111C A120U A145U C150G C169A yielded a reverse-splicing fitness of 0.00497. In the case of C82A A111C A120U A145U C150G C169U, the reverse-splicing fitness is reported as 0.00325. With C82A A111C A145C C150G C169A the reverse-splicing fitness was 0.00764. Work on C82A A111C A145C C150G C169U yielded a reverse-splicing fitness of 0.0102. With C82A A111C A145C C150G C169G the reverse-splicing fitness was 0.00663. C82A A111C A120U gave a reverse-splicing fitness of 0.0221. In the case of C82A A111C A120U C150G C169U U176A, the reverse-splicing fitness is reported as 0.00407. For C82A A111C A120U C150G C169U U176C, the reverse-splicing fitness was 0.00486. Variant C82A A111C A120U C150G C169U U176G has a reverse-splicing fitness of 0.00331. C82A A111C A145C U176C gave a reverse-splicing fitness of 0.0878. C82A A111C A145C U176G showed a reverse-splicing fitness of 0.0188. For C82A A111C A145C U176A, the reverse-splicing fitness was 0.0639. Work on C82A A111C A120U A145C C150A C169U U176A yielded a reverse-splicing fitness of 0.0036. Work on C82A A111C A120U A145C C150A C169U U176G yielded a reverse-splicing fitness of 0.00263. With C82A A111C A120U A145C C150A C169U U176C the reverse-splicing fitness was 0.00283. C82A A111C A145C C150A U176C showed a reverse-splicing fitness of 0.0176. For C82A A111C A145C C150A U176G, the reverse-splicing fitness was 0.00856. Variant C82A A111C A145C C150A U176A has a reverse-splicing fitness of 0.0105. With C82A A111C A145C C169U U176C the reverse-splicing fitness was 0.0138. C82A A111C A145C C169U U176G showed a reverse-splicing fitness of 0.00646. For C82A A111C A145C C169U U176A, the reverse-splicing fitness was 0.0142. In the case of C82A A111C A120U A145G, the reverse-splicing fitness is reported as 0.023. Work on C82A A111C A120U A145C yielded a reverse-splicing fitness of 0.0196. Work on C82A A111C A120U A145U yielded a reverse-splicing fitness of 0.0205. Work on C82A A111C A120U A145G C150A C169A U176A yielded a reverse-splicing fitness of 0.00894. In the case of C82A A111C A120U A145G C150A C169A U176C, the reverse-splicing fitness is reported as 0.00537. Variant C82A A111C A120U A145G C150A C169A U176G has a reverse-splicing fitness of 0.00349. Work on C82A A111C A120U A145C C150U yielded a reverse-splicing fitness of 0.00922. C82A A111C A120U A145C C150G gave a reverse-splicing fitness of 0.00708. For C82A A111C A120U A145C C150A, the reverse-splicing fitness was 0.00399. C82A A111C A120U C150G C169A gave a reverse-splicing fitness of 0.00857. With C82A A111C A120U C150G C169G the reverse-splicing fitness was 0.0061. Variant C82A A111C A120U C150G C169U has a reverse-splicing fitness of 0.00639. For C82A A111C A120U C169A U176C, the reverse-splicing fitness was 0.0037. With C82A A111C A120U C169A U176A the reverse-splicing fitness was 0.00417. In the case of C82A A111C A120U C169A U176G, the reverse-splicing fitness is reported as 0.00184. Work on C82A A111C A120U A145C C150G C169A U176C yielded a reverse-splicing fitness of 0.00263. C82A A111C A120U A145C C150G C169A U176G showed a reverse-splicing fitness of 0.00275. C82A A111C A120U A145C C150G C169A U176A showed a reverse-splicing fitness of 0.00353. In the case of C82A A111C A120U C150A U176A, the reverse-splicing fitness is reported as 0.00497. For C82A A111C A120U C150A U176G, the reverse-splicing fitness was 0.00369. With C82A A111C A120U C150A U176C the reverse-splicing fitness was 0.00738.

From the RNAGym collection of RNA variant scans (doi:10.1093/molbev/msab373)
